# ± gives the standard deviation of the averaged measurements.
# B1: library; a variant is named by its letters at N, in order (parent)
# chain: GCUGUCACCGGUGUAUUACCCUAGUGGUCGACCGGUCUGAUGAGUCUNNNNNNAGACGAAACAGC
# Experiments:
# hypoxanthine [1] = variants of: B1; assay: FACS-Seq fitted mean relative fluorescence mCherry/BFP without ligand (log10 relative fluorescence); ligand: hypoxanthine (xanthine aptamer); higher = higher reporter protein expression; settings: HEK293T, ligand present: no
# Procedure, shortened: (§1)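 Fluorescence is reported as a normalized fitted mean of sorted-bin read counts. Lentivirally transduced HEK293T libraries (mCherry ribozyme-switch reporter, EF1α-BFP marker) were enriched, treated with or without ligand for 48 h, and sorted into 6 mCherry/BFP bins for MiSeq sequencing of PCR-amplified genomic DNA. The normal fit was on log10(mCherry/BFP), scaled to five spiked-in control ribozymes.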
# hypoxanthine [2] = variants of: B1; assay: normalized RNA/DNA level with ligand (relative to sTRSVctl = 100) (log10 (% of sTRSVctl)); ligand: hypoxanthine (xanthine aptamer); higher = less ribozyme self-cleavage, higher mRNA level; settings: ligand concentration (+) RNA-Seq: 5 mM, HEK293T, reporter: mCherry (pCS4076), ligand present: yes
# Procedure, shortened: (§2)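 Library plasmids encoding reporter-linked ribozyme switches (mCherry, or eGFP for some folinic acid experiments) were transfected into HEK293T at 4 µg per 6-well well. Ligand, when used, was added 1 h before transfection. Total RNA was extracted with EDTA 72 h later, then reverse-transcribed, amplified, barcoded and sequenced. RNA level was RNA reads over DNA reads, divided by a spiked-in non-cleaving control (or the top 25 sequences), ×100, log10; only sequences with ≥100 DNA reads were kept.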
# hypoxanthine [3] = variants of: B1; assay: normalized RNA/DNA level without ligand (relative to sTRSVctl = 100) (log10 (% of sTRSVctl)); ligand: hypoxanthine (xanthine aptamer); higher = less ribozyme self-cleavage, higher mRNA level; settings: HEK293T, reporter: mCherry (pCS4076), ligand present: no
# Procedure, shortened: as §2
# hypoxanthine [4] = variants of: B1; assay: FACS-Seq fitted mean relative fluorescence mCherry/BFP with ligand (log10 relative fluorescence); ligand: hypoxanthine (xanthine aptamer); ligand concentration (+) FACS-Seq: 5 mM; higher = higher reporter protein expression; settings: HEK293T, ligand present: yes
# Procedure, shortened: as §1
Variant,FACS-Seq fitted mean (log10) (hypoxanthine [1]),normalized RNA/DNA level with ligand (log10) (hypoxanthine [2]),normalized RNA/DNA level without ligand (log10) (hypoxanthine [3]),FACS-Seq fitted mean (log10) (hypoxanthine [4])
AAUUCA,0.486 ± 0.061,1.93 ± 0.049,1.86 ± 0.025,0.567 ± 0.082
AAUUCG,0.321 ± 0.022,1.9 ± 0.041,1.52 ± 0.043,0.729 ± 0.034
AAUGGG,0.049 ± 0.035,1.77 ± 0.052,1.25 ± 0.063,0.547 ± 0.047
AAUGGA,0.265 ± 0.081,1.88 ± 0.022,1.61 ± 0.038,0.192 ± 0.36
GCAACA,-0.108 ± 0.043,1.96 ± 0.027,1.85 ± 0.059,-0.0215 ± 0.13
CAUGGG,0.245 ± 0.013,1.86 ± 0.038,1.39 ± 0.038,0.603 ± 0.0033
CAUGGU,0.331 ± 0.045,1.82 ± 0.02,1.755 ± 0.0046,0.455 ± 0.014
UAUUGU,0.106 ± 0.0092,1.92 ± 0.044,1.7 ± 0.026,0.411 ± 0.049
UAUUGG,0.528 ± 0.017,1.87 ± 0.031,1.431 ± 0.011,0.745 ± 0.06
CCAGAG,0.628 ± 0.021,1.95 ± 0.038,1.51 ± 0.066,0.741 ± 0.022
CCAGAA,0.561 ± 0.0022,1.94 ± 0.053,1.79 ± 0.053,0.631 ± 0.011
UCAGGA,0.301 ± 0.039,1.89 ± 0.02,1.44 ± 0.047,0.6634 ± 0.0026
UCAGGG,0.486 ± 0.02,1.951 ± 0.015,1.69 ± 0.065,0.704 ± 0.067
ACAAUA,0.442 ± 0.015,1.916 ± 0.017,1.81 ± 0.015,0.552 ± 0.018
ACAAUG,0.37 ± 0.017,1.87 ± 0.061,1.56 ± 0.053,0.638 ± 0.044
UAUUCA,0.158 ± 0.15,1.942 ± 0.0084,1.925 ± 0.0052,0.144 ± 0.082
UCAAGA,0.386 ± 0.04,1.92 ± 0.028,1.54 ± 0.051,0.599 ± 0.074
UCAAGU,0.221 ± 0.018,1.91 ± 0.0075,1.63 ± 0.043,0.415 ± 0.046

Variant,FACS-Seq fitted mean (log10) (hypoxanthine [1]),normalized RNA/DNA level with ligand (log10) (hypoxanthine [2]),normalized RNA/DNA level without ligand (log10) (hypoxanthine [3]),FACS-Seq fitted mean (log10) (hypoxanthine [4])
GCAGUG,0.155 ± 0.01,1.87 ± 0.075,1.4 ± 0.064,0.533 ± 0.039
GCAGUC,0.791 ± 0.051,1.94 ± 0.047,1.71 ± 0.047,0.764 ± 0.064
CCAUGA,0.311 ± 0.11,1.986 ± 0.016,1.788 ± 0.016,0.414 ± 0.064
GCACUA,0.503 ± 0.091,1.939 ± 0.0064,1.81 ± 0.027,0.489 ± 0.08
GCACUG,0.25 ± 0.031,1.877 ± 0.012,1.45 ± 0.029,0.464 ± 0.011
GCACUU,0.8516 ± 0.0035,1.965 ± 0.015,1.9 ± 0.068,0.751 ± 0.069
ACAGGU,0.51 ± 0.04,1.858 ± 0.0068,1.49 ± 0.082,0.744 ± 0.054
ACAGGA,0.278 ± 0.028,1.905 ± 0.013,1.66 ± 0.043,0.473 ± 0.069
ACAGGG,0.428 ± 0.034,1.83 ± 0.038,1.44 ± 0.032,0.788 ± 0.041
ACACUG,0.4461 ± 0.0036,1.9 ± 0.021,1.42 ± 0.097,0.795 ± 0.052
UAUGGC,-0.121 ± 0.027,1.92 ± 0.012,1.82 ± 0.022,0.322 ± 0.0061
UAUGGG,0.525 ± 0.08,1.857 ± 0.0095,1.41 ± 0.084,0.723 ± 0.072
UAUGGU,0.514 ± 0.064,1.88 ± 0.036,1.527 ± 0.004,0.643 ± 0.029
GCACCU,0.968 ± 0.14,1.942 ± 0.0073,1.94 ± 0.044,0.785 ± 0.08
CAUUGA,0.221 ± 0.12,1.912 ± 0.0057,1.82 ± 0.053,0.32 ± 0.0063
GAUGGC,0.369 ± 0.012,1.89 ± 0.016,1.598 ± 0.0036,0.596 ± 0.041
GAUGGU,0.501 ± 0.024,1.95 ± 0.07,1.76 ± 0.022,0.748 ± 0.062

# — the supplement of paper PMC6757056
